Data set [1] concerns pPROT8 derived LacZ-proELA-1 fusion protein [β-galactosidase: P00722].
For data set [2], the system named is recombinant MBP-proELA-1 fusion protein (from pPROT5).
Data set [3] addresses recombinant trypsin (TrypZean) (UniProt P00760). Briefly: cell-based or functional assay.
Chain of UniProt P00760 (P00760 24-246): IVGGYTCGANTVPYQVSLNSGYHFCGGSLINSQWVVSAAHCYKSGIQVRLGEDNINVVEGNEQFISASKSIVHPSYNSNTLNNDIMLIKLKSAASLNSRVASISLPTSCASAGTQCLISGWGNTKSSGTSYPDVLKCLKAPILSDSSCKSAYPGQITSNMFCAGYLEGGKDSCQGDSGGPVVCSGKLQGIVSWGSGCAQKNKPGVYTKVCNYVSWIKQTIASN

As for trypsin, the “conversion of the fusion protein to enzymatically active human ELA-1 with trypsin” value in data set [1] is listed as “it could not be converted to enzymatically active human ELA-1 with trypsin”. For the same molecule, the “digestion of the fusion protein with trypsin (SDS-PAGE; elastase activity by SLAP assay)” value in data set [2] was “The soluble recombinant MBP-proELA-1 protein could be digested with trypsin to yield both MBP and mature human ELA-1”.

B1: soybean trypsin inhibitor (SBTI) (protein, UniProt P01070 25-205, looked up)
chain: DFVLDNEGNPLENGGTYYILSDITAFGGIRAAPTGNERCPLTVVQSRNELDKGIGTIISSPYRIRFIAEGHPLSLKFDSFAVIMLCVGIPTEWSVVEDLPEGPAVKIGENKDAMDGWFRLERVSDDEFNNYKLVFCPQQAEDDKCGDIGISIDHDDGTRRLVVSKNKPLVVQFQKLDKESL
On to B1, for which, in data set [3], the Mean trypsin activity (BENZ assay), TrypZean concentration equivalent; PRT-201 from clone 55M3 Vial #1 plus TrypZean spike (to 100 ng/mL) and SBTI (to 10 ug/mL); spike without SBTI 118.7 is below 1.56 ng/mL; the Mean trypsin activity (BENZ assay), TrypZean concentration equivalent; PRT-201 from clone 55M3 Vial #2 plus TrypZean spike (to 100 ng/mL) and SBTI (to 10 ug/mL); spike without SBTI 122.4 was below 1.56 ng/mL; the Mean trypsin activity (BENZ assay), TrypZean concentration equivalent; PRT-201 from clone 55M3 Vial #3 plus TrypZean spike (to 100 ng/mL) and SBTI (to 10 ug/mL); spike without SBTI 122.8 was below 1.56 ng/mL; the Mean trypsin activity (BENZ assay), TrypZean concentration equivalent; PRT-201 from trypsin activated clone plus SBTI (to 10 ug/mL); intrinsic activity without SBTI 8.7 was below 1.56 ng/mL. Also, in data set [3], the Mean trypsin activity (BENZ assay), TrypZean concentration equivalent; PRT-201 from trypsin activated clone plus TrypZean spike (to 100 ng/mL) and SBTI (to 10 ug/mL); spike without SBTI 130.0 was below 1.56 ng/mL; the Mean trypsin activity (BENZ assay), TrypZean concentration equivalent; TrypZean standard 1.56 ng/mL plus SBTI (to 10 ug/mL); without SBTI 2.7 is below 1.56 ng/mL; the Mean trypsin activity (BENZ assay), TrypZean concentration equivalent; TrypZean standard 3.13 ng/mL plus SBTI (to 10 ug/mL); without SBTI 3.7 was below 1.56 ng/mL; the Mean trypsin activity (BENZ assay), TrypZean concentration equivalent; TrypZean standard 6.25 ng/mL plus SBTI (to 10 ug/mL); without SBTI 6.5 was below 1.56 ng/mL. In data set [3], the Mean trypsin activity (BENZ assay), TrypZean concentration equivalent; TrypZean standard 12.5 ng/mL plus SBTI (to 10 ug/mL); without SBTI 11.2 was below 1.56 ng/mL; the Mean trypsin activity (BENZ assay), TrypZean concentration equivalent; TrypZean standard 25 ng/mL plus SBTI (to 10 ug/mL); without SBTI 23.5 is below 1.56 ng/mL; the Mean trypsin activity (BENZ assay), TrypZean concentration equivalent; TrypZean standard 50 ng/mL plus SBTI (to 10 ug/mL); without SBTI 49.4 is below 1.56 ng/mL; the Mean trypsin activity (BENZ assay), TrypZean concentration equivalent; TrypZean standard 100 ng/mL plus SBTI (to 10 ug/mL); without SBTI 102.4 is below 1.56 ng/mL.

The values above are taken from US20180208918A1.
